{
  "source": "patent US20060018907A1",
  "about": "(published 2006)",
  "key": {"[1]": {"target": "human lymphotoxin (TNFβ) (human) (UniProt P01374)", "sequence (P01374 35-205 limits assumed)": "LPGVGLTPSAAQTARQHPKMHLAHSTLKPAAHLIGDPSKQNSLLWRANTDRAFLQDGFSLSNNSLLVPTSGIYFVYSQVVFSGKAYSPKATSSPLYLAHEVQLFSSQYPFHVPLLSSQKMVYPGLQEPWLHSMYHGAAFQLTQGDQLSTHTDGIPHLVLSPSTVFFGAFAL", "experiment": "cell-based or functional assay"}, "[2]": {"target": "human tumor necrosis factor-α (TNFα) (human, UniProt P01375 77-233)", "sequence (P01375 77-233)": "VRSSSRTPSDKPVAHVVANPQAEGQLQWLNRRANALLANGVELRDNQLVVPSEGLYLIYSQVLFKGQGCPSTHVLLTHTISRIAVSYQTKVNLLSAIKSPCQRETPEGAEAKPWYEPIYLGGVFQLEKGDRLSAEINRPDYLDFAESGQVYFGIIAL", "experiment": "cell-based or functional assay"}},
  "data": [
    {"molecule": "p55-sf2 (p55 TNF receptor / IgG1 heavy chain single fusion with truncated light chain JCK) (from UniProt P19438) (Fc fusion)", "values": [
      {"measurement": "amount needed for the same inhibition of TNFβ cytotoxicity, against p75P-sf2 (fold against p75P-sf2)", "setting": "[1]", "value": 3}
    ]},
    {"molecule": "p75-sf2 (complete extracellular domain of p75 fused to the IgG1 heavy chain, with truncated light chain) (Fc fusion) QLPAQVAFTPYAPEPGSTCRLREYYDQTAQMCCSKCSPGQHAKVFCTKTSDTVCDSCEDSTYTQLWNWVPECLSCGSRCSSDQVETQACTREQNRICTCRPGWYCALSKQEGCRLCAPLRKCRPGFGVARPGTETSDVVCKPCAPGTFSNTTSSTDICRPHQICNVVAIPGNASMDAVCTSTSPTRSMAPGAVHLPQPVSTRSQHTQPTPEPSTAPSTSFLLPMGPSPPAEGSTGDGTLVTVSS", "values": [
      {"measurement": "amount needed for 50% inhibition of TNFα cytotoxicity, against p55-sf2", "setting": "[2]", "value": "~2", "unit": "fold against p55-sf2"}
    ]},
    {"molecule": "chimeric mouse/human IgG1 anti-platelet mAb (7E3) (antibody, INN chains, looked up, V domains shown, IgG1) VH: EVQLQQSGTVLARPGASVKMSCEASGYTFTNYWMHWVKQRPGQGLEWIGAIYPGNSDTSYIQKFKGKAKLTAVTSTTSVYMELSSLTNEDSAVYYCTLYDGYYVFAYWGQGTLVTVSA VL: EIVLTQSPVTLSVTPGDSVSLSCRASRDISNNLHWFQQTSHESPRLLIKYASQSMSGIPSRFSGSGSGTDFTLSINSVETEDFGMYFCQQTNSWPYTFGGGTKLEIK", "values": [
      {"measurement": "IL-6 secreted by FS-4 fibroblasts (ng/ml); 4 µg/ml antibody, 0.3 ng/ml TNF (no antibody: 1.36)", "setting": "[2]", "value": 1.6, "unit": "ng/ml IL-6"},
      {"measurement": "IL-6 secreted by FS-4 fibroblasts (ng/ml); 4 µg/ml antibody, 1.5 ng/ml TNF (no antibody: 2.00)", "setting": "[2]", "value": 1.96, "unit": "ng/ml IL-6"},
      {"measurement": "IL-6 secreted by FS-4 fibroblasts (ng/ml); 4 µg/ml antibody, 7.5 ng/ml TNF (no antibody: 2.56)", "setting": "[2]", "value": 2.16, "unit": "ng/ml IL-6"}
    ]}
  ]
}
